Assay results published in article PMC5910447, “Efficient production of secretory Streptomyces clavuligerus β-lactamase inhibitory protein (BLIP) in Pichia pastoris” (AMB Express, 2018).

Molecular target: T1, TEM-1 β-lactamase (UniProt P62593 24-286)
T1 construct: TEM-1 β-lactamase (class A); whether the construct carries a tag or its signal peptide is not known; also called TEM-1 enzyme; source: E. coli haboring pRSET-K/TEM-1 β-lactamase (lab stock); production procedure in Additional file 1: Methods
Assay: enzyme inhibition assay (nitrocefin hydrolysis, free β-lactamase against inhibitor concentration); 1.5 nM TEM-1 β-lactamase pre-incubated with 0–15 nM BLIP in 50 mM sodium phosphate buffer with 1 mg/mL bovine serum albumin for 2 h at 25 °C; then 21 μM nitrocefin, absorbance at 500 nm; nonlinear fit to Eq. 1; Ki* (equilibrium dissociation constant) equivalent to Ki

T1 sequence (P62593 24-286): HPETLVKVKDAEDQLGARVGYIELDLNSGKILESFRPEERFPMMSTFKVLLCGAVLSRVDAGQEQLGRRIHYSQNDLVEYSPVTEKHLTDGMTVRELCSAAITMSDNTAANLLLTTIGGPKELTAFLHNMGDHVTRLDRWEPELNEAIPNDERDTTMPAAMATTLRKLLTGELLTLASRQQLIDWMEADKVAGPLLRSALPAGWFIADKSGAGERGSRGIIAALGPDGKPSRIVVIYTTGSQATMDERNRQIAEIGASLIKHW

B1: β-Lactamase inhibitory protein (BLIP), recombinant, secreted by P. pastoris (EAEAEF-mature BLIP) (natural protein, Streptomyces clavuligerus)
chain: EAEAEFAGVMTGAKFTQIQFGMTRQQVLDIAGAENCETGGSFGDSIHCRGHAAGDYYAYATFGFTSAAADAKVDSKSQEKLLAPSAPTLTLAKFNQVTVGMTRAQVLATVGQGSCTTWSEYYPAYPSTAGVTLSLSCFDVDGYSSTGFYRGSAHLWFTDGVLQGKRQWDLV
notes: peptide left at the N-terminus after Kex2 cleavage of the α-factor mating signal; the blip gene's own terminator was kept, so no C-terminal vector tags are expected (calculated mass 18,219.25 matches EAEAEF-mature BLIP); also called recombinant BLIP; P. pastoris-expressed BLIP; source: P. pastoris X-33 (pPICZαA/BLIP, methanol induction), secreted; recovered from the culture supernatant without …
Ki: 0.55 ± 0.07 nM
